Source: US20250122254A1, “Recombinant Fusion Proteins Comprising Interleukin- 18-Binding Protein and Antigen Binding Fragment to Serum Albumin, and Compositions and Uses Thereof” (published 2025)
Where two headings read alike, the source gives them in different places.

Columns and labels:
recombinant human IL-18 [1] = target: T1, recombinant human IL-18 (human, UniProt Q14116); assay: cell-based or functional assay
recombinant human IL-18 [2] = target: T1, recombinant human IL-18
Target sequence in this assay (Q14116 37-193 limits assumed): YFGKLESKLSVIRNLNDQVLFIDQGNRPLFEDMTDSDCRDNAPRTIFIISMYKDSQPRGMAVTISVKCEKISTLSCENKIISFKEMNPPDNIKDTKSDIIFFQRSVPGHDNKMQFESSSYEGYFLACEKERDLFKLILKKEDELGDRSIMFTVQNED

Row | IC50 of inhibition of IL-18-induced IFN-γ production in KG-1 cells (recombinant human IL-18 [1]) | IC50 of inhibition of IL-18-induced IFN-γ production in KG-1 cells (recombinant human IL-18 [2]) | Binder
1 | 0.024 nM |  | recombinant human IL-18-binding protein with His-tag (hIL18BP-his8) (other) TPVSQTTTAATASVRSTKDPCPSQPPVFPAAKQCPALEVTWPEVEVPLNGTLSLSCVACSRFPNFSILYWLGNGSFIEHLPGRLWEGSTSRERGSTGTQLCKALVLEQLTPALHSTNFSCVLVDPEQVVQRHVVLAQLWAGLRATLPPTQEALPSSHSSPQQQGHHHHHHHH
2 |  | 0.0419 nM | APB-R3 protein (protein) heavy: QVQLVQSGGGPVKPGGSLRLSCAASGFMFRAYSMNWVRQAPGKGLEWVSSISSSGRYIHYADSVKGRFTISRDNAKNSLYLQMNSLRAEDTAVYYCARETVMAGKALDYWGQGTLVTVSSASTKGPSVFPLAPSSKSTSEGTAALGCLVKDYFPEPVTVSWNSGALTSGVHTFPAVLQSSGLYSLSSVVTVPSSSLGTQTYICNVNHKPSNTKVDKKVEPKSSGSAPAPGSTPVSQTTTAATASVRSTKDPCPSQPPVFPAAKQCPALEVTWPEVEVPLNGTLSLSCVACSRFPNFSILYWLGNGSFIEHLPGRLWEGSTSRERGSTGTQLCKALVLEQLTPALHSTNFSCVLVDPEQVVQRHVVLAQLWAGLRATLPPTQEALPSSHSSPQQQG light: DIVLTQSPGTLSLSPGETATLSCRASQSVGSNLAWYQQKPGQAPRLLIYGASTGATGVPARFSGSRSGTDFTLTITSLQPEDFATYYCQQYYSFLAKTFGQGTQLEIKRTVAAPSVFIFPPSDEQLKSGTASVVCLLNNFYPREAKVQWKVDNALQSGNSQESVTEQDSKDSTYSLSNTLTLSKADYEKHKVYACEVTHQGLSSPVTKSFNRGES
